Data on five molecules can be found in paper PMC6377654, “Screening and identification of a non-peptide antagonist for the peptide hormone receptor in Arabidopsis” (Communications Biology, 2019).

Broadly, the Kd is the equilibrium constant for the complex coming apart. Usually IC50 stands for the concentration that gives 50% inhibition. A low value points to greater potency.

The target in experiment [1] is CLV1 (Arabidopsis thaliana) (UniProt Q9SYQ8). The conditions noted are these: cited from earlier work.
Experiment [2] addresses BAM1-HaloTag (recombinant BAM1 in which the cytoplasmic kinase domain was replaced with HaloTag) (Arabidopsis) (UniProt O49545). The experiment is described as follows: cross-linking; photoaffinity labeling as a3, in the presence of 10 μM NPD12704.
For experiment [3] the target is unchanged. The experiment is described as follows: cross-linking; photoaffinity labeling as a3, in the presence of 100 μM NPD12704.
The target of another experiment is T1, BAM1 (Arabidopsis thaliana, UniProt O49545).
T1 construct: BAM1-HT: Met1 to Ile700 region (signal peptide, 22 LRRs, transmembrane domain), cytoplasmic kinase domain replaced with HaloTag; expressed in tobacco BY-2 cells, immobilized on HaloLink Sepharose beads
T1 sequence (O49545 1-700): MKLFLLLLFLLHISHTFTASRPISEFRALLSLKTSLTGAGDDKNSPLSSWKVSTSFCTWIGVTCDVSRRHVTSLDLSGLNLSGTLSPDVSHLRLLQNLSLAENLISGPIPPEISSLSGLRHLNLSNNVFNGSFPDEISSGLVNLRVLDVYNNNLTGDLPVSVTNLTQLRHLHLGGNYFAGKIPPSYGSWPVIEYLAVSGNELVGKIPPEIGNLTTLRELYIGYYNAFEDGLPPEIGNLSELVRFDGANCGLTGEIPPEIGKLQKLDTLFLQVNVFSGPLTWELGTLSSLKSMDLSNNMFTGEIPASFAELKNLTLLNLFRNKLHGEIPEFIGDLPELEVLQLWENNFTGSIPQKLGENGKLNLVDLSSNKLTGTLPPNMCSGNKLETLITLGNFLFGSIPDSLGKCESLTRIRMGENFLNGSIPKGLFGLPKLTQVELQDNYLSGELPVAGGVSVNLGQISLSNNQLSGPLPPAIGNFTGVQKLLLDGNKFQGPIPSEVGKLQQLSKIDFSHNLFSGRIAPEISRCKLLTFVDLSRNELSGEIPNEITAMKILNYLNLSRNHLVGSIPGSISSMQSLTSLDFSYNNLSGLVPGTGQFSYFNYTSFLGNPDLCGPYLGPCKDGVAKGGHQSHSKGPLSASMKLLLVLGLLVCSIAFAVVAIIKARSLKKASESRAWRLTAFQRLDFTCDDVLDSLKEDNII
Briefly: competition binding of fluorescent Alexa488-CLE9 on bead-immobilized BAM1 (confocal imaging); confirmed by competitive photoaffinity labeling with […]ASA-CLE9 and […]ASA-[Ara3]CLV3.

The target in experiment [4] is BAM2 (Arabidopsis thaliana) (UniProt Q9M2Z1). The settings on record: cited from earlier work.
Experiment [5] deals with BAM1 (Arabidopsis thaliana) (UniProt O49545). The settings on record: cited from earlier work.

Chain of CLV1 (Arabidopsis thaliana) (Q9SYQ8 25-638): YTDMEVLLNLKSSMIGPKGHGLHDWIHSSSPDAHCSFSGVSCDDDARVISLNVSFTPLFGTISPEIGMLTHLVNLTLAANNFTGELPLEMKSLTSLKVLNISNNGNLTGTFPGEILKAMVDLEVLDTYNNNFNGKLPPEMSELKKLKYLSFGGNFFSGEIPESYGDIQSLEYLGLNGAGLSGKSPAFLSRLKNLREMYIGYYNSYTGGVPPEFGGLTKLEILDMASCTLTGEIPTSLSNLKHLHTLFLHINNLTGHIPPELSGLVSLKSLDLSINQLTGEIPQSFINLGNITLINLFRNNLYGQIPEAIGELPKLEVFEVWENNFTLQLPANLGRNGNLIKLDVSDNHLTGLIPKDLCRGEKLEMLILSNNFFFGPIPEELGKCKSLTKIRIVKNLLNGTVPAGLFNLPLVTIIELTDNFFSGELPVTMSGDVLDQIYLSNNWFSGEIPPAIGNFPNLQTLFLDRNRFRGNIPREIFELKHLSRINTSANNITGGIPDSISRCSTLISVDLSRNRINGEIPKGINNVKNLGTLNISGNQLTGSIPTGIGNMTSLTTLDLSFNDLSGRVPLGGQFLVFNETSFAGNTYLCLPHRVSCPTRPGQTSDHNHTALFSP
Chain of BAM2 (Arabidopsis thaliana) (Q9M2Z1 23-636): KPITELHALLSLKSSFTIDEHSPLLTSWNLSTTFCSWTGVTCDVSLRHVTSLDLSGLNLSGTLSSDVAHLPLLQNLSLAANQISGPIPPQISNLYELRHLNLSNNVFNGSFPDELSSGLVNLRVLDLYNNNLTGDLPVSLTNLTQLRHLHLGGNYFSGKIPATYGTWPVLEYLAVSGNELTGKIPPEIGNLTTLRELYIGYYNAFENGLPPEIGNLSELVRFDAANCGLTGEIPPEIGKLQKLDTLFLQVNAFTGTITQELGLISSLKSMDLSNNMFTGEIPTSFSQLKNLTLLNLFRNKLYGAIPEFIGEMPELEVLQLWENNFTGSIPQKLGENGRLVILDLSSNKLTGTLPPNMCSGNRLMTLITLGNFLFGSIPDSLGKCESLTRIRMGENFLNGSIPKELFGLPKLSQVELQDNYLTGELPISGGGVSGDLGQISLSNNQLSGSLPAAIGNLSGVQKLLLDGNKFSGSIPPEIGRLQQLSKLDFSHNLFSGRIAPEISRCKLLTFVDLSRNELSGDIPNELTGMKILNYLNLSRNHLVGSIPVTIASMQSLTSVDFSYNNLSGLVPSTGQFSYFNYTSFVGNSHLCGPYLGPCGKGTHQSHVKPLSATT

For [Ara3]CLV3 (from UniProt Q9XF04), the dissociation constant (Kd) in experiment [1] was 1 nM.

For the molecule [^125I]ASA-CLE9 (peptide), the cross-linked band, percent of the control, with 10 μM NPD12704 (% of the control) in experiment [2] was 62. The cross-linked band, percent of the control, with 100 μM NPD12704 (% of the control) in experiment [3] came to 33.

Regarding [^125I]ASA-[Ara3]CLV3 glycopeptide, the cross-linked band, percent of the control, with 10 μM NPD12704 (% of the control) in experiment [2] stood at 46.

Regarding `CNC(=S)Nc1cc(OC)c(OC)cc1Cc1nccc2cc(OC)c(OC)cc12` [NPD12704], the half-inhibitory concentration (IC50) at BAM1 stood at 26000 nM.

As for CLE9 (from UniProt Q9FZE4), the equilibrium dissociation constant (Kd) was 11.9 nM in experiment [4] and 1.8 nM in experiment [5].
